This note sets out measurements from article PMC6555819, “Comprehensive study of nuclear receptor DNA binding provides a revised framework for understanding receptor specificity”.

Changes are numbered by the printed parent chain.

The chains are these.
B1: NRC3_wobSeed93_DR3_T11G_o1 (dsDNA)
DNA 1: GCAGTCAAAGGTCATCTAGGTAACGTAAGATATGCTGCGATTGACAGCGTAGAATGAAGG
DNA 2: CCTTCATTCTACGCTGTCAATCGCAGCATATCTTACGTTACCTAGATGACCTTTGACTGC
B2: NRC3_wobSeed13_DR0_C7A_o1 (dsDNA)
DNA 1: GCCGTCAAAGGTCAAGGTCAGTGAAAGAGACTCGAAGCGATTGACAGCGTAGAATGAAGG
DNA 2: CCTTCATTCTACGCTGTCAATCGCTTCGAGTCTCTTTCACTGACCTTGACCTTTGACGGC
B3: NRC3_random_hg19_169_o1 (dsDNA)
DNA 1: GCCTTCCCTGCTGCTTTGTTTACCTAAGCAAGCCTGGCGATTGACAGCGTAGAATGAAGG
DNA 2: CCTTCATTCTACGCTGTCAATCGCCAGGCTTGCTTAGGTAAACAAAGCAGCAGGGAAGGC
B4: NRC3_random_hg19_250_o1 (dsDNA)
DNA 1: GCCAAGACCATCCTGGCTAACACAGTGAAACCCTGTGCGATTGACAGCGTAGAATGAAGG
DNA 2: CCTTCATTCTACGCTGTCAATCGCACAGGGTTTCACTGTGTTAGCCAGGATGGTCTTGGC
B5: NRC3_wobSeed37_DR1_G22C_o1 (dsDNA)
DNA 1: GCCGTCCAAGGTCAAAGGTCACTGAAGAGATGACGGGCGATTGACAGCGTAGAATGAAGG
DNA 2: CCTTCATTCTACGCTGTCAATCGCCCGTCATCTCTTCAGTGACCTTTGACCTTGGACGGC
B6: NRC3_wobSeed76_DR3_T21C_o1 (dsDNA)
DNA 1: GCCCTACTGGGCCAAAAAGGCCATTGATGCCGATAAGCGATTGACAGCGTAGAATGAAGG
DNA 2: CCTTCATTCTACGCTGTCAATCGCTTATCGGCATCAATGGCCTTTTTGGCCCAGTAGGGC
B7: NRC3_random_hg19_319_o1 (dsDNA)
DNA 1: GCTCCCTGCCAGCCCTGGTCTGAAGCAAGCCTAGAGGCGATTGACAGCGTAGAATGAAGG
DNA 2: CCTTCATTCTACGCTGTCAATCGCCTCTAGGCTTGCTTCAGACCAGGGCTGGCAGGGAGC
B8: NRC3_wobSeed33_DR1_A13T_o1 (dsDNA)
DNA 1: GCATCTCTAGGTTAAAGTTCAGTGAATCCCGAGGATGCGATTGACAGCGTAGAATGAAGG
DNA 2: CCTTCATTCTACGCTGTCAATCGCATCCTCGGGATTCACTGAACTTTAACCTAGAGATGC
B9: NRC3_wobSeed73_DR3_A6T_o1 (dsDNA)
DNA 1: GCCAATCTAGGTCACAGAGGTCAAAGTCCGTGCGTAGCGATTGACAGCGTAGAATGAAGG
DNA 2: CCTTCATTCTACGCTGTCAATCGCTACGCACGGACTTTGACCTCTGTGACCTAGATTGGC
B10: NRC3_wobSeed29_DR1_A7C_o1 (dsDNA)
DNA 1: GCGCTTCCGGGTCAAAGGTTATAGCATGAATAGAATGCGATTGACAGCGTAGAATGAAGG
DNA 2: CCTTCATTCTACGCTGTCAATCGCATTCTATTCATGCTATAACCTTTGACCCGGAAGCGC
B11: NRC3_random_hg19_290_o1 (dsDNA)
DNA 1: GCGCCTCCATCTCAGGACTTGATTCTATTGAGTTAAGCGATTGACAGCGTAGAATGAAGG
DNA 2: CCTTCATTCTACGCTGTCAATCGCTTAACTCAATAGAATCAAGTCCTGAGATGGAGGCGC
B12: NRC3_random_hg19_455_o1 (dsDNA)
DNA 1: GCCTGCAGTTTCTGTTTCCGTGGTCCAGGTTGAGCCGCGATTGACAGCGTAGAATGAAGG
DNA 2: CCTTCATTCTACGCTGTCAATCGCGGCTCAACCTGGACCACGGAAACAGAAACTGCAGGC
B13: NRC3_wobSeed66_DR2_A8G_o1 (dsDNA)
DNA 1: GCAATACGGGGTCACTAGGCCAGAGTAGGTACGAATGCGATTGACAGCGTAGAATGAAGG
DNA 2: CCTTCATTCTACGCTGTCAATCGCATTCGTACCTACTCTGGCCTAGTGACCCCGTATTGC
B14: NRC3_random_hg19_499_o1 (dsDNA)
DNA 1: GCCATGTGGACTTCATTCGACCCAGCTGAGAAGACTGCGATTGACAGCGTAGAATGAAGG
DNA 2: CCTTCATTCTACGCTGTCAATCGCAGTCTTCTCAGCTGGGTCGAATGAAGTCCACATGGC
B15: NRC3_wobSeed37_DR1_C6T_o1 (dsDNA)
DNA 1: B5 DNA 1 with C6T, C22G
DNA 2: B5 DNA 2 with G39C, G55A
B16: NRC3_wobSeed37_DR1_C6A_o1 (dsDNA)
DNA 1: B5 DNA 1 with C6A, C22G
DNA 2: B5 DNA 2 with G39C, G55T
B17: NRC3_random_hg19_68_o1 (dsDNA)
DNA 1: GCAGCAGTGAGGACCAATGGGCAGTCCAGGAGGAAAGCGATTGACAGCGTAGAATGAAGG
DNA 2: CCTTCATTCTACGCTGTCAATCGCTTTCCTCCTGGACTGCCCATTGGTCCTCACTGCTGC
B18: NRC3_random_hg19_106_o1 (dsDNA)
DNA 1: GCAAGGAATGTAATCTAACTCTGTATTCAAAGAAGAGCGATTGACAGCGTAGAATGAAGG
DNA 2: CCTTCATTCTACGCTGTCAATCGCTCTTCTTTGAATACAGAGTTAGATTACATTCCTTGC

Sequence of RARg:RXRa (P13631 whole entry, chain 1 of 2): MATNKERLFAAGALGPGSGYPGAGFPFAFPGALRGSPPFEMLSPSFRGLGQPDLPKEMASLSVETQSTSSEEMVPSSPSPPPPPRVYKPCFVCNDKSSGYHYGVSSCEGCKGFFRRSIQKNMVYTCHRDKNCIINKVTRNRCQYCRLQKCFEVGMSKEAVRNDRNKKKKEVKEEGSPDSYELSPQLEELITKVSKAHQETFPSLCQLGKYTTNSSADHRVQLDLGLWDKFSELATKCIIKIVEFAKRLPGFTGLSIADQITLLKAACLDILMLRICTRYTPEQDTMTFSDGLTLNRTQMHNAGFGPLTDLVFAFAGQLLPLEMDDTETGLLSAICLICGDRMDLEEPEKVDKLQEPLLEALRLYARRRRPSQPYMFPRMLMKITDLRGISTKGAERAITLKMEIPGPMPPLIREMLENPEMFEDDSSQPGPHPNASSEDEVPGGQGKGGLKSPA
Sequence of RARg:RXRa (P19793 whole entry, chain 2 of 2): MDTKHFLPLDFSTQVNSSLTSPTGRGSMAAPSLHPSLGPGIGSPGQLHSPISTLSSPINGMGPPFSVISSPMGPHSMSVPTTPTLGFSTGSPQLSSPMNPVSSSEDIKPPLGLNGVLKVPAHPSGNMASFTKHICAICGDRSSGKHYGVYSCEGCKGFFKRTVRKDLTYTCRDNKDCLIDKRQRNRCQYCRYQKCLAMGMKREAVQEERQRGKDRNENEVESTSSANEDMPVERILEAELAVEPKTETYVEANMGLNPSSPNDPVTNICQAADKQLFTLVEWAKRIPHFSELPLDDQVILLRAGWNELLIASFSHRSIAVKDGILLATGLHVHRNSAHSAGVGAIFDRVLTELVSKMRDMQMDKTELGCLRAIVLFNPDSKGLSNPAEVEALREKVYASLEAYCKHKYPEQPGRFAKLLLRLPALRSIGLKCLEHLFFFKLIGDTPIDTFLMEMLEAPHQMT
Sequence of FXR:RXRa (Q96RI1 whole entry, chain 1 of 2): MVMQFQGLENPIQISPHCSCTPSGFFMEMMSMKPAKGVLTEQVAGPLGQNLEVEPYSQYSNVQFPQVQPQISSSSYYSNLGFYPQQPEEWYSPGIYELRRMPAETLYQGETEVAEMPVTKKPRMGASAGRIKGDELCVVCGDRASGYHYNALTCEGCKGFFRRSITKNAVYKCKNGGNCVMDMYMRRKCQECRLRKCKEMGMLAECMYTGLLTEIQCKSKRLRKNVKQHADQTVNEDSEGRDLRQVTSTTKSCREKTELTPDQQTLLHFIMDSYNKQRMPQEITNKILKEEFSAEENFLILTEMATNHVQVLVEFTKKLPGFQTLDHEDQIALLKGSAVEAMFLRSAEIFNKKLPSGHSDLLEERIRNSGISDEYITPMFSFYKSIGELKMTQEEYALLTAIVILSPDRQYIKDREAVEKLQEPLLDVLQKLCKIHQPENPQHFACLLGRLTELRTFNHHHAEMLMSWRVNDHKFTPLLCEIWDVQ
Sequence of FXR:RXRa (P19793 whole entry, chain 2 of 2): as the sequence (P19793 whole entry, chain 2 of 2) above
Sequence of PPARa:RXRa (Q07869 whole entry, chain 1 of 2): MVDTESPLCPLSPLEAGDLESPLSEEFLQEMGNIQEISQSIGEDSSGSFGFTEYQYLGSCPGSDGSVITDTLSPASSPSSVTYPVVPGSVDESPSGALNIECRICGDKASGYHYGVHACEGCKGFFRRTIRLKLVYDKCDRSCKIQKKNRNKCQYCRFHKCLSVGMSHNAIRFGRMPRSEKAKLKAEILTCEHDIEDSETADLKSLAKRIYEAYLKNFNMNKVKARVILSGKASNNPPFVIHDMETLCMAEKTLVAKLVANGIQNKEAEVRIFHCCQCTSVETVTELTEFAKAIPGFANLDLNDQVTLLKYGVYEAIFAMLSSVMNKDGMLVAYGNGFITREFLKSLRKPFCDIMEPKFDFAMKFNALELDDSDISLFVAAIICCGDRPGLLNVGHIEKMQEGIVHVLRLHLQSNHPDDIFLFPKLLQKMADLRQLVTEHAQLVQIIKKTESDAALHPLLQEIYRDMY
Sequence of PPARa:RXRa (P19793 whole entry, chain 2 of 2): as the sequence (P19793 whole entry, chain 2 of 2) above

The first data set concerns the target RARb:RXRa (Homo sapiens, UniProt P10826;P19793 full;full). Nature of the data set: no ligand; PBM; 270 nM : 90 nM RXRa; PBS pH 7.4, 2% milk, 0.02% Triton X-100, 1 mM DTT, BSA, 0.4 mg/ml salmon testes DNA. The settings on record: tags: His kept;His cleaved; copies: 1;1; label: surface-attached array probe. The gist of the method:
(§1)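 Regression normalization was applied to scanned fluorescence from custom Agilent 4×180K protein-binding microarrays. Before scanning, arrays were incubated 1 h with ligand-free nuclear receptor dimers, and binding was detected with antibodies against each partner (one per run). Binding z-scores use the random background probes as reference.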
As to B1, the binding signal is 6.16 PBM z-score against 500 random probes.
The same measure, in the same setting: as for B2, the figure is 6.38 PBM z-score against 500 random probes; as for B3, -0.32 PBM z-score against 500 random probes.
On the same count and under the same terms, as for B4, the figure is -0.3 PBM z-score against 500 random probes.

The target of the next data set is PXR:RXRa (Homo sapiens, UniProt O75469;P19793 full;full). The description is as above. The settings on record: tags: His kept;His cleaved; copies: 1;1; label: surface-attached array probe. In a few lines:
as §1
Turning to B5, the binding signal is 7.38 PBM z-score against 500 random probes.
B6: the binding signal was -0.08 PBM z-score against 500 random probes.
The same measure, in the same setting: as for B7, the figure is -0.63 PBM z-score against 500 random probes.
For the molecule B8, the binding signal was 3.64 PBM z-score against 500 random probes.
Same read-out and setting: as for B9, the figure is 7.27 PBM z-score against 500 random probes; as for B10, 6.49 PBM z-score against 500 random probes; as for B11, -0.26 PBM z-score against 500 random probes.
Regarding B12, the binding signal is -0.33 PBM z-score against 500 random probes.

The next data set addresses PPARa:RXRa (Homo sapiens, UniProt Q07869;P19793 full;full). Described as above. The settings on record: tags: GST kept;His cleaved; copies: 1;1; label: surface-attached array probe. The gist of the method: as §1
In the case of B1, the binding signal is 7.57 PBM z-score against 500 random probes.
Still for that read-out and setting: as for B2, the figure is 6.81 PBM z-score against 500 random probes.
On to B11, for which the binding signal is -0.45 PBM z-score against 500 random probes.
For the molecule B13, the binding signal is 7.26 PBM z-score against 500 random probes.

For a further data set, the target named is LXRb:RXRa (Homo sapiens, UniProt P55055;P19793 full;full). The data set is described as above. The settings on record: tags: His kept;His cleaved; copies: 1;1; label: surface-attached array probe. The gist of the method:
as §1
Take B14: the binding signal is 0.14 PBM z-score against 500 random probes.
The same measure, in the same setting: as for B1, the figure is 6.47 PBM z-score against 500 random probes.
On the same count and under the same terms, as for B2, the figure is 6.31 PBM z-score against 500 random probes.
On the same count and under the same terms, as for B13, the figure is 6.54 PBM z-score against 500 random probes; as for B4, -0.42 PBM z-score against 500 random probes.

The target of the next data set is VDR:RXRa (Homo sapiens, UniProt P11473;P19793 full;full). Described as above. To be noted: tags: His kept;His cleaved; copies: 1;1; label: surface-attached array probe. In a few lines: as §1
B5: the binding signal is 7.17 PBM z-score against 500 random probes.
Same read-out and setting: as for B4, the figure is -0.26 PBM z-score against 500 random probes.

For the next data set, the target named is LXRa:RXRa (Homo sapiens, UniProt Q13133;P19793 full;full). The data set is described as above. To be noted: tags: His kept;His cleaved; copies: 1;1; label: surface-attached array probe. In a few lines: as §1
Sequence of LXRa:RXRa (Q13133 whole entry, chain 1 of 2): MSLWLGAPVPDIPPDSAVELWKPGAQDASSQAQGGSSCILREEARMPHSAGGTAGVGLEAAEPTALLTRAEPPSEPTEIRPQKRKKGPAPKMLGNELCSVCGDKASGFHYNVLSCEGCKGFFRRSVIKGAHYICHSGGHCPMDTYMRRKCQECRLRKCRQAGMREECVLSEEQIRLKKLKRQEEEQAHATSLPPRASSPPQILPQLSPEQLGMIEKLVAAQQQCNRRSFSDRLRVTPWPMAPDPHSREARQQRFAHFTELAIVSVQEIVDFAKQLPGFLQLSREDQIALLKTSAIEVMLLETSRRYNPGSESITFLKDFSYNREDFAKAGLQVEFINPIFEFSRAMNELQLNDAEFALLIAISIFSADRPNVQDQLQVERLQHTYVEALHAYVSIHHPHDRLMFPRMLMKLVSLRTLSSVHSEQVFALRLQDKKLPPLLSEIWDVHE
Sequence of LXRa:RXRa (P19793 whole entry, chain 2 of 2): as the sequence (P19793 whole entry, chain 2 of 2) above
On to B15, for which the binding signal is 7.33 PBM z-score against 500 random probes.
Same read-out and setting: as for B16, the figure is 7.38 PBM z-score against 500 random probes; as for B14, 0.09 PBM z-score against 500 random probes.
Still for that read-out and setting: as for B17, the figure is -0.72 PBM z-score against 500 random probes.
Consider B1, for which the binding signal is 7.01 PBM z-score against 500 random probes.
On the same count and under the same terms, as for B2, the figure is 7.37 PBM z-score against 500 random probes; as for B18, -0.1 PBM z-score against 500 random probes; as for B3, -0.21 PBM z-score against 500 random probes.
The same measure, in the same setting: as for B4, the figure is -0.15 PBM z-score against 500 random probes.

The next data set concerns the target RARg:RXRa (Homo sapiens, UniProt P13631;P19793 full;full). The description is as above. To be noted: tags: His kept;His cleaved; copies: 1;1; label: surface-attached array probe. In a few lines: as §1
For B5, the binding signal was 9.31 PBM z-score against 500 random probes.
For B1, the binding signal was 7.62 PBM z-score against 500 random probes.
Same read-out and setting: as for B2, the figure is 8.25 PBM z-score against 500 random probes.
For the molecule B11, the binding signal is -0.59 PBM z-score against 500 random probes.

The next data set has as its target FXR:RXRa (Homo sapiens, UniProt Q96RI1;P19793 full;full). The description is as above. The settings on record: tags: His kept;His cleaved; copies: 1;1; label: surface-attached array probe. The gist of the method: as §1
On to B15, for which the binding signal is 8.83 PBM z-score against 500 random probes.
On the same count and under the same terms, as for B16, the figure is 8.85 PBM z-score against 500 random probes; as for B1, 8.84 PBM z-score against 500 random probes; as for B2, 9.06 PBM z-score against 500 random probes.
As for B13, the binding signal is 7.97 PBM z-score against 500 random probes.
B4: the binding signal was 0 PBM z-score against 500 random probes.

In a further data set the target is RXRa (Homo sapiens, UniProt P19793). Nature of the data set: no ligand; PBM; 180 nM; PBS pH 7.4, 2% milk, 0.02% Triton X-100, 1 mM DTT, BSA, 0.4 mg/ml salmon testes DNA. To be noted: tags: His cleaved; chain copies: 2; label: surface-attached array probe.
Sequence of RXRa (P19793 whole entry): as the sequence (P19793 whole entry, chain 2 of 2) above
Consider B1, for which the binding signal was 8.08 PBM z-score against 500 random probes.
The same measure, in the same setting: as for B2, the figure is 8.68 PBM z-score against 500 random probes; as for B13, 8.8 PBM z-score against 500 random probes.

A further data set concerns the target PPARg:RXRa (Homo sapiens, UniProt P37231;P19793 full;full). Nature of the data set: no ligand; PBM; 180 nM : 90 nM RXRa; PBS pH 7.4, 2% milk, 0.02% Triton X-100, 1 mM DTT, BSA, 0.4 mg/ml salmon testes DNA. To be noted: tags: His kept;His cleaved; copies: 1;1; label: surface-attached array probe.
As to B5, the binding signal was 11.9 PBM z-score against 500 random probes.
Same read-out and setting: as for B15, the figure is 11.8 PBM z-score against 500 random probes.
On to B16, for which the binding signal is 12.3 PBM z-score against 500 random probes.
In the case of B14, the binding signal was 0.35 PBM z-score against 500 random probes.
B17: the binding signal is -0.26 PBM z-score against 500 random probes.
Still for that read-out and setting: as for B1, the figure is 10.1 PBM z-score against 500 random probes; as for B6, 0.38 PBM z-score against 500 random probes.
On the same count and under the same terms, as for B2, the figure is 9.87 PBM z-score against 500 random probes; as for B7, -1.25 PBM z-score against 500 random probes; as for B18, 0.5 PBM z-score against 500 random probes.
The same measure, in the same setting: as for B8, the figure is 10 PBM z-score against 500 random probes; as for B9, 10.7 PBM z-score against 500 random probes.
As for B10, the binding signal was 12.4 PBM z-score against 500 random probes.
Still for that read-out and setting: as for B11, the figure is -0.43 PBM z-score against 500 random probes; as for B12, -2.08 PBM z-score against 500 random probes; as for B3, -1.09 PBM z-score against 500 random probes.
With B13, the binding signal was 10.2 PBM z-score against 500 random probes.
On the same count and under the same terms, as for B4, the figure is 0.19 PBM z-score against 500 random probes.
